System: Escherichia coli TOP10
Assay: shrunken log2 fold change of peptide-encoding DNA abundance (4.5 h post-induction vs induction); higher = less antimicrobial activity (less host growth inhibition)
Conditions: time post-induction: 4.5 h; library: site-saturation at positions 5, 18, 19, 20
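Further: peptides expressed intracellularly from a pBAD plasmid library in pooled LB shake-flask culture, induced with 0.3% L-arabinose, DNA abundance read by NGS, three biological replicates, DESeq2 with apeglm shrinkage.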

Row | Sequence | shrunken log2 fold change
1 | RRIRGRPPRLPRPRPRPNANPRP | 0.837
2 | RRIRPRPPRLPRPRPRPCCYPRP | -0.47
3 | RRIRNRPPRLPRPRPRPSVSPRP | -0.44
4 | RRIRYRPPRLPRPRPRPQINPRP | -0.669
5 | RRIRQRPPRLPRPRPRPMPHPRP | -0.0205
6 | RRIRFRPPRLPRPRPRPMALPRP | -0.706
7 | RRIRRRPPRLPRPRPRPMPAPRP | 0.203
8 | RRIRMRPPRLPRPRPRPLQNPRP | 1.2
9 | RRIRLRPPRLPRPRPRPNAWPRP | 0.0821
10 | RRIRNRPPRLPRPRPRPVVGPRP | 0.392
11 | RRIRERPPRLPRPRPRPLKPPRP | -0.16
12 | RRIRGRPPRLPRPRPRPPLAPRP | 1.35
13 | RRIRKRPPRLPRPRPRPYCRPRP | -0.214
14 | RRIRNRPPRLPRPRPRPYMCPRP | -0.18
15 | RRIRGRPPRLPRPRPRPGHRPRP | 0.263
16 | RRIRKRPPRLPRPRPRPRHWPRP | 0.0398
17 | RRIRIRPPRLPRPRPRPETRPRP | -0.0624
18 | RRIRPRPPRLPRPRPRPRLMPRP | 0.337
19 | RRIRLRPPRLPRPRPRPQKGPRP | -0.183
20 | RRIRQRPPRLPRPRPRPSCYPRP | -0.396
21 | RRIRARPPRLPRPRPRPYISPRP | -0.132
22 | RRIRNRPPRLPRPRPRPSRAPRP | 0.121
23 | RRIRPRPPRLPRPRPRPRFEPRP | 0.0793
24 | RRIRKRPPRLPRPRPRPNTHPRP | -0.125
25 | RRIRMRPPRLPRPRPRPCPYPRP | -0.126

Row | Sequence | shrunken log2 fold change
26 | RRIRRRPPRLPRPRPRPQSNPRP | -0.285
27 | RRIRHRPPRLPRPRPRPSYNPRP | -0.86
28 | RRIRIRPPRLPRPRPRPRNNPRP | -0.355
29 | RRIRWRPPRLPRPRPRPDPMPRP | 0.444
30 | RRIRMRPPRLPRPRPRPRPRPRP | 1.68
31 | RRIRTRPPRLPRPRPRPANSPRP | -0.119
32 | RRIRLRPPRLPRPRPRPNQAPRP | -0.0446
33 | RRIRWRPPRLPRPRPRPVENPRP | -0.101
34 | RRIRSRPPRLPRPRPRPDHLPRP | -0.0228
35 | RRIRVRPPRLPRPRPRPGWGPRP | 0.621
36 | RRIRSRPPRLPRPRPRPSKNPRP | -0.306
37 | RRIRKRPPRLPRPRPRPIGGPRP | -0.494
38 | RRIRDRPPRLPRPRPRPLVFPRP | -0.0186
39 | RRIRGRPPRLPRPRPRPSREPRP | 0.51
40 | RRIRFRPPRLPRPRPRPKDNPRP | -0.000409
41 | RRIRARPPRLPRPRPRPVRVPRP | 0.781
42 | RRIRLRPPRLPRPRPRPMPMPRP | 0.0663
43 | RRIRSRPPRLPRPRPRPDSRPRP | 0.148
44 | RRIRLRPPRLPRPRPRPEKNPRP | 0.0916
45 | RRIRPRPPRLPRPRPRPRSYPRP | 0.199
46 | RRIRRRPPRLPRPRPRPLTFPRP | 2.56
47 | RRIRLRPPRLPRPRPRPRDDPRP | 0.108
48 | RRIRFRPPRLPRPRPRPVQAPRP | 0.183
49 | RRIRSRPPRLPRPRPRPCDCPRP | -0.239
50 | RRIRKRPPRLPRPRPRPFTMPRP | -0.23

Row | Sequence | shrunken log2 fold change
51 | RRIRMRPPRLPRPRPRPKEVPRP | 0.00253
52 | RRIRPRPPRLPRPRPRPLHDPRP | -0.034
53 | RRIRLRPPRLPRPRPRPVMNPRP | -0.18
54 | RRIRGRPPRLPRPRPRPTWRPRP | 0.673
55 | RRIRKRPPRLPRPRPRPTMYPRP | -0.0949
56 | RRIRGRPPRLPRPRPRPRDVPRP | 0.654
57 | RRIRSRPPRLPRPRPRPWAQPRP | -0.0414
58 | RRIRFRPPRLPRPRPRPEQKPRP | 0.341
59 | RRIRDRPPRLPRPRPRPMPKPRP | -0.0503
60 | RRIRLRPPRLPRPRPRPKIYPRP | -0.492
61 | RRIRPRPPRLPRPRPRPKKQPRP | -0.15
62 | RRIRGRPPRLPRPRPRPWYKPRP | -0.015
63 | RRIRLRPPRLPRPRPRPPTLPRP | 0.4
64 | RRIRCRPPRLPRPRPRPDHCPRP | 0.00334
65 | RRIRDRPPRLPRPRPRPVAEPRP | 1.16
66 | RRIRLRPPRLPRPRPRPRAKPRP | 0.139
67 | RRIRDRPPRLPRPRPRPYNTPRP | -0.476
68 | RRIRQRPPRLPRPRPRPCGIPRP | -0.115
69 | RRIRWRPPRLPRPRPRPMKTPRP | -0.0156
70 | RRIRIRPPRLPRPRPRPMIDPRP | -1.15
71 | RRIRLRPPRLPRPRPRPMQQPRP | 0.0192
72 | RRIRWRPPRLPRPRPRPIDCPRP | 0.0353
73 | RRIRTRPPRLPRPRPRPVKVPRP | 0.00854
74 | RRIRVRPPRLPRPRPRPIPSPRP | -0.165
75 | RRIRMRPPRLPRPRPRPNYAPRP | -0.193

Row | Sequence | shrunken log2 fold change
76 | RRIRQRPPRLPRPRPRPAYHPRP | -0.826
77 | RRIRLRPPRLPRPRPRPMLSPRP | 0.0192
78 | RRIRYRPPRLPRPRPRPRPLPRP | -0.3
79 | RRIRMRPPRLPRPRPRPHAVPRP | 0.353
80 | RRIRTRPPRLPRPRPRPKQIPRP | 0.0644
81 | RRIRVRPPRLPRPRPRPLADPRP | 0.279
82 | RRIRMRPPRLPRPRPRPPCWPRP | 0.162
83 | RRIRFRPPRLPRPRPRPYKGPRP | -0.631
84 | RRIRLRPPRLPRPRPRPKGWPRP | 0.342
85 | RRIRMRPPRLPRPRPRPGFVPRP | 0.449
86 | RRIRERPPRLPRPRPRPWSYPRP | 0.0168
87 | RRIRHRPPRLPRPRPRPISQPRP | -0.0145
88 | RRIRLRPPRLPRPRPRPMTWPRP | -0.384
89 | RRIRHRPPRLPRPRPRPSRKPRP | 0.094
90 | RRIRIRPPRLPRPRPRPCRQPRP | 0.112
91 | RRIRLRPPRLPRPRPRPWLMPRP | -0.102
92 | RRIRQRPPRLPRPRPRPFTSPRP | -0.00281
93 | RRIRIRPPRLPRPRPRPRHVPRP | -0.163
94 | RRIRVRPPRLPRPRPRPGSVPRP | -0.269
95 | RRIRRRPPRLPRPRPRPEPQPRP | 1.03
96 | RRIRIRPPRLPRPRPRPWVIPRP | -0.0141
97 | RRIRGRPPRLPRPRPRPQSHPRP | 0.214
98 | RRIRCRPPRLPRPRPRPAVMPRP | 0.067
99 | RRIRHRPPRLPRPRPRPRSVPRP | 0.0714
100 | RRIRTRPPRLPRPRPRPLDIPRP | -1.22

Row | Sequence | shrunken log2 fold change
101 | RRIRWRPPRLPRPRPRPDRVPRP | 0.0957
102 | RRIRGRPPRLPRPRPRPERQPRP | 0.101
103 | RRIRYRPPRLPRPRPRPISCPRP | -0.202
104 | RRIRRRPPRLPRPRPRPLGEPRP | 0.144
105 | RRIRKRPPRLPRPRPRPAHPPRP | 0.711
106 | RRIRSRPPRLPRPRPRPWDKPRP | -0.252
107 | RRIRPRPPRLPRPRPRPLWHPRP | -0.0751
108 | RRIRYRPPRLPRPRPRPRFSPRP | -0.144
109 | RRIRDRPPRLPRPRPRPSSLPRP | 0.15
110 | RRIRIRPPRLPRPRPRPLVVPRP | -0.25
111 | RRIRKRPPRLPRPRPRPGQFPRP | 0.00171
112 | RRIRLRPPRLPRPRPRPRNAPRP | -0.0271
113 | RRIRLRPPRLPRPRPRPFTPPRP | -0.265
114 | RRIRARPPRLPRPRPRPPTPPRP | 1.33
115 | RRIRTRPPRLPRPRPRPFMMPRP | -0.203
116 | RRIRFRPPRLPRPRPRPHNFPRP | -0.399
117 | RRIRARPPRLPRPRPRPIMFPRP | -0.0901
118 | RRIRDRPPRLPRPRPRPNLGPRP | -0.00884
119 | RRIRRRPPRLPRPRPRPVNGPRP | 0.0578
120 | RRIRIRPPRLPRPRPRPRCVPRP | -0.0162
121 | RRIRRRPPRLPRPRPRPLCVPRP | 0.537
122 | RRIRARPPRLPRPRPRPVPKPRP | 0.791
123 | RRIRGRPPRLPRPRPRPHNHPRP | -0.27
124 | RRIRRRPPRLPRPRPRPSTHPRP | 0.0934
125 | RRIRIRPPRLPRPRPRPAHEPRP | 0.215

Row | Sequence | shrunken log2 fold change
126 | RRIRYRPPRLPRPRPRPSIEPRP | -1.02
127 | RRIRHRPPRLPRPRPRPDSFPRP | -0.477
128 | RRIRIRPPRLPRPRPRPIMYPRP | -0.0494
129 | RRIRIRPPRLPRPRPRPYSPPRP | -0.0324
130 | RRIRSRPPRLPRPRPRPPERPRP | 0.0652
131 | RRIRHRPPRLPRPRPRPAPSPRP | 0.709
132 | RRIRGRPPRLPRPRPRPCPTPRP | 0.0246
133 | RRIRARPPRLPRPRPRPLSKPRP | -0.0286
134 | RRIRNRPPRLPRPRPRPATDPRP | 0.14
135 | RRIRPRPPRLPRPRPRPWILPRP | -0.451
136 | RRIRFRPPRLPRPRPRPEKVPRP | -0.0394
137 | RRIRWRPPRLPRPRPRPRCCPRP | 0.448
138 | RRIRARPPRLPRPRPRPNWDPRP | 0.0564
139 | RRIRPRPPRLPRPRPRPCHEPRP | -0.316
140 | RRIRYRPPRLPRPRPRPFQWPRP | 0.0299
141 | RRIRMRPPRLPRPRPRPSVNPRP | -0.0473
142 | RRIRCRPPRLPRPRPRPPCDPRP | 0.242
143 | RRIRARPPRLPRPRPRPWEKPRP | -0.164
144 | RRIRSRPPRLPRPRPRPPPSPRP | 0.785
145 | RRIRIRPPRLPRPRPRPPQDPRP | 0.0725
146 | RRIRKRPPRLPRPRPRPELNPRP | 2.26
147 | RRIRARPPRLPRPRPRPLYGPRP | -0.203
148 | RRIRTRPPRLPRPRPRPVCLPRP | -0.398
149 | RRIRKRPPRLPRPRPRPNPEPRP | 0.0292
150 | RRIRSRPPRLPRPRPRPKYAPRP | -0.323
